Here are results for 1 protein from publication PMC5737657 (Nucleic Acids Research, 2017).

The series deals with the molecule itself. Briefly: crystal structure.

B1: VapC26 toxin with N-terminal (His)6 tag (native, co-expressed with VapB26) (natural protein)
chain: MIIDTSALLAYFDAAEPDHAAVSECIDSSADALVVSPYVVAELDYLVATRVGVDAELAVLRELAGGAWELANCGAAEIEQAARIVTKYQDQRIGIADAANVVLADRYRTRTILTLDRRHFSALRPIGGGRFTVIP
On to B1, for which the binding result is “binds”.
